Test results as given in US20260232827A1 (Zymeworks, published 2026).

Columns and labels:
[1] = molecular target: T1, human NaPi2b (sodium-dependent phosphate transporter 2B) (human, UniProt O95436 1-690); assay: cell-based or functional assay
T1 sequence: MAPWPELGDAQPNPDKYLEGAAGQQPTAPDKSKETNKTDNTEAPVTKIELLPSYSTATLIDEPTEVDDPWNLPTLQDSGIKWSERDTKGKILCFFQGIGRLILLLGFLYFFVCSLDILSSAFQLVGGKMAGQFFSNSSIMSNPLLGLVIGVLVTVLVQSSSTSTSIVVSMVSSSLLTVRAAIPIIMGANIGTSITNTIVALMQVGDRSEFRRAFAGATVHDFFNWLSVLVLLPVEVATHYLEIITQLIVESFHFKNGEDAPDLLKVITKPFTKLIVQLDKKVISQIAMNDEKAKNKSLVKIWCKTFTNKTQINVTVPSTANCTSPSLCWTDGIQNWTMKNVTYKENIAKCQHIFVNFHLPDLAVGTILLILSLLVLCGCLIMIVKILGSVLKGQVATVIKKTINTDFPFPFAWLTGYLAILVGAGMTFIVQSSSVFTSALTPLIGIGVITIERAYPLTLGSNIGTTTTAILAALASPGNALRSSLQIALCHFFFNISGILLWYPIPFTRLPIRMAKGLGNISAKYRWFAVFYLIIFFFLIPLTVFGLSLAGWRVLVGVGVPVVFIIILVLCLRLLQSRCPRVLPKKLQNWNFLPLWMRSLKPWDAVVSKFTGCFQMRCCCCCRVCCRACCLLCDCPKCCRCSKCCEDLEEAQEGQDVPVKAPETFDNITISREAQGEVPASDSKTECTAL

[2] = molecular target: T1, human NaPi2b (sodium-dependent …); assay: cell-based or functional assay; remark: listed apart in the source
[3] = molecular target: T1, human NaPi2b (sodium-dependent …); assay: flow cytometry on HCC-78 cells (endogenous NaPi2b), 24 h at 4 C
[4] = molecular target: T1, human NaPi2b (sodium-dependent …); assay: flow cytometry on IGROV-1 cells (endogenous NaPi2b), 24 h at 4 C
[5] = molecular target: T1, human NaPi2b (sodium-dependent …); assay: flow cytometry on H441 cells (endogenous NaPi2b), 24 h at 4 C
[6] = molecular target: T2, human sodium-dependent phosphate transporter 2B (NaPi2b) (human, UniProt O95436 1-690); assay: flow cytometry on IGROV-1 cells (endogenous NaPi2b), 24 h at 4 C, anti-human IgG Fc AF647, APC-A GeoMean
T2 construct: UniProt ID is given as 095436 [sic]; also called hNaPi2b; Hu NaPi2b
T2 sequence: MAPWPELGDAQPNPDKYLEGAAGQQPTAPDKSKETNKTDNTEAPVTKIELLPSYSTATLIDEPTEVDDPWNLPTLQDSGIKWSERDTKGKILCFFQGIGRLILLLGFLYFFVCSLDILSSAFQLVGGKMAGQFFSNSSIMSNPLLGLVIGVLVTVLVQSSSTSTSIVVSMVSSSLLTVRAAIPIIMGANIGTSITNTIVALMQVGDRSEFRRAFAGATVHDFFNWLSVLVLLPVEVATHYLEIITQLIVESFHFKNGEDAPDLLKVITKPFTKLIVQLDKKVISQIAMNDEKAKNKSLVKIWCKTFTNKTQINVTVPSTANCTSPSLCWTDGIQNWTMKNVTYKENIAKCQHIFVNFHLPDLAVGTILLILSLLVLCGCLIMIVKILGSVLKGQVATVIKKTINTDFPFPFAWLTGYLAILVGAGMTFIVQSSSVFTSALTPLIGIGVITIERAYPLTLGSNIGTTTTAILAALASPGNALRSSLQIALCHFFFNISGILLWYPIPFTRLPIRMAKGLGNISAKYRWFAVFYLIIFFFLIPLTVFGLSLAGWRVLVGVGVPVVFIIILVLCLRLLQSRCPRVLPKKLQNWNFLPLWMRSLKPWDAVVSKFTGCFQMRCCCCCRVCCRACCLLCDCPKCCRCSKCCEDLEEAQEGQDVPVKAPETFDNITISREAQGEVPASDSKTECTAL

[7] = molecular target: T2, human sodium-dependent phosphate …; assay: flow cytometry on HCC-78 cells (endogenous NaPi2b), 24 h at 4 C, anti-human IgG Fc AF647, APC-A GeoMean
[8] = molecular target: T2, human sodium-dependent phosphate …; assay: flow cytometry on H441 cells (endogenous NaPi2b), 24 h at 4 C, anti-human IgG Fc AF647, APC-A GeoMean

B1: v38591-MC-GGFG-AM-Compound 139 DAR 4 (antibody, human IgG1, kappa)
heavy: not shown
light: DVQMTQSPSSLSASVGDRVTITCRASQDVYSYLNWYQQKPGKAVKLLIYYTSRLQSGVPSRFSGSGSGTDYTLTISSLQPEDFATYYCQQYNIFPWTFGQGTKLEIKRTVAAPSVFIFPPSDEQLKSGTASVVCLLNNFYPREAKVQWKVDNALQSGNSQESVTEQDSKDSTYSLSSTLTLSKADYEKHKVYACEVTHQGLSSPVTKSFNRGEC
modifications: drug-linker MC-GGFG-AM-Compound 139 on cysteines freed by TCEP reduction, DAR 4 over the whole antibody
- EC50 (nM), in vitro cytotoxicity, H441 spheroids, 7 days [1]: 9.85 nM
- EC50 (nM), in vitro cytotoxicity, H1781 spheroids, 7 days [1]: 0.95 nM
- Internalized Fluorescence Fold-Over Untreated, H441, 4 h, 2.5 nM [2]: 1.2 fold
- Internalized Fluorescence Fold-Over Untreated, H441, 24 h, 2.5 nM [2]: 2 fold
- Internalized Fluorescence Fold-Over Untreated, HCC-78, 4 h, 2.5 nM [2]: 5.6 fold
- Internalized Fluorescence Fold-Over Untreated, HCC-78, 24 h, 2.5 nM [2]: 35.9 fold
- Internalized Fluorescence Fold-Over Untreated, IGROV-1, 4 h, 2.5 nM [2]: 7.1 fold
- Internalized Fluorescence Fold-Over Untreated, IGROV-1, 24 h, 2.5 nM [2]: 26.6 fold
- Bmax (MFI) [3]: 7810 MFI
- Kd [3]: 1.07 nM
- Bmax (MFI) [4]: 10500 MFI
- Kd [4]: 0.82 nM
- Bmax (MFI) [5]: 521 MFI
- Kd [5]: 0.74 nM

B2: v40502 (LALADS)-MC-GGFG-AM-Compound 139 DAR 4 (antibody, human IgG1, kappa, L234A L235A)
heavy: not shown
light: DVQMTQSPSSLSASVGDRVTITCRASQDVYSYLNWYQQKPGKAVKLLIYYTSRLQSGVPSRFSGSGSGTDYTLTISSLQPEDFATYYCQQYNIFPWTFGQGTKLEIKRTVAAPSVFIFPPSDEQLKSGTASVVCLLNNFYPREAKVQWKVDNALQSGNSQESVTEQDSKDSTYSLSSTLTLSKADYEKHKVYACEVTHQGLSSPVTKSFNRGEC
modifications: as above; MC-GGFG-AM-Compound 139 drug-linker on cysteines freed by TCEP reduction; sites not stated; DAR 4
notes: Antibody-drug conjugate of v40502
- EC50 (read off the curve) [6]: ~2 nM
- EC50 (read off the curve) [7]: ~3 nM
- EC50 (read off the curve) [8]: ~0.6 nM

B3: v40502-MC-GGFG-AM-Compound 139 DAR 4 (antibody, human IgG1, kappa, L234A L235A)
heavy: not shown
light: DVQMTQSPSSLSASVGDRVTITCRASQDVYSYLNWYQQKPGKAVKLLIYYTSRLQSGVPSRFSGSGSGTDYTLTISSLQPEDFATYYCQQYNIFPWTFGQGTKLEIKRTVAAPSVFIFPPSDEQLKSGTASVVCLLNNFYPREAKVQWKVDNALQSGNSQESVTEQDSKDSTYSLSSTLTLSKADYEKHKVYACEVTHQGLSSPVTKSFNRGEC
modifications: drug-linker MC-GGFG-AM-Compound 139 on cysteines freed by TCEP reduction, DAR 4 over the whole antibody
- EC50 (nM), in vitro cytotoxicity, H441 spheroids, 7 days [1]: 7.57 nM
- EC50 (nM), in vitro cytotoxicity, H1781 spheroids, 7 days [1]: 1.15 nM
- Internalized Fluorescence Fold-Over Untreated, H441, 4 h, 2.5 nM [2]: 1.2 fold
- Internalized Fluorescence Fold-Over Untreated, H441, 24 h, 2.5 nM [2]: 1.9 fold
- Internalized Fluorescence Fold-Over Untreated, HCC-78, 4 h, 2.5 nM [2]: 5.3 fold
- Internalized Fluorescence Fold-Over Untreated, HCC-78, 24 h, 2.5 nM [2]: 36.5 fold
- Internalized Fluorescence Fold-Over Untreated, IGROV-1, 4 h, 2.5 nM [2]: 6.8 fold
- Internalized Fluorescence Fold-Over Untreated, IGROV-1, 24 h, 2.5 nM [2]: 25.4 fold
- Bmax (MFI) [3]: 7770 MFI
- Kd [3]: 1.12 nM
- Bmax (MFI) [4]: 10700 MFI
- Kd [4]: 0.82 nM
- Bmax (MFI) [5]: 518 MFI
- Kd [5]: 0.81 nM
